How the values were obtained:
[1] = target: T1, Human v6-peptide (human); assay: SPR SCK, biotin-peptide on SA chip, antibody injected; apparent KD
T1 sequence (peptide, N-terminal biotin): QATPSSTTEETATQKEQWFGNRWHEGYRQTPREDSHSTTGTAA

[2] = target: Human CD44v6 iso4-Fc (human) (UniProt P16070); assay: SPR SCK, antibody captured via anti-kappa, CD44v6-Fc injected; apparent KD
[3] = target: CD44v6 on cultured cancer cells (BHT-101, ACT-1, A431) (human) (UniProt P16070); assay: LigandTracer, 177Lu-antibody on A431 cells
[4] = target: Human CD44v6 iso4-Fc (human) (UniProt P16070); assay: SPR SCK, antibody captured via anti-kappa, CD44v6-Fc injected
[5] = target: T1, Human v6-peptide (human); assay: SPR SCK, biotin-peptide on SA chip, antibody injected
[6] = target: FcyR1; assay: SPR
Sequence of FcyR1 (P12314 16-292): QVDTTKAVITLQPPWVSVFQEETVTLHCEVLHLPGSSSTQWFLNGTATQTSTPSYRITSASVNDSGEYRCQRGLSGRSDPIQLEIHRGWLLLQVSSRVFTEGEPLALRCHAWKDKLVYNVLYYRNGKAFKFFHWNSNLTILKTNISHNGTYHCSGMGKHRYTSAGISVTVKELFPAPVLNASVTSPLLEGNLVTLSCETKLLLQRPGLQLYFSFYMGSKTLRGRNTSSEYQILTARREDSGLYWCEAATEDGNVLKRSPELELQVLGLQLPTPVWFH

Sequence of Human CD44v6 iso4-Fc (human) (P16070 other isoform, or with tags, fused parts or gaps limits assumed): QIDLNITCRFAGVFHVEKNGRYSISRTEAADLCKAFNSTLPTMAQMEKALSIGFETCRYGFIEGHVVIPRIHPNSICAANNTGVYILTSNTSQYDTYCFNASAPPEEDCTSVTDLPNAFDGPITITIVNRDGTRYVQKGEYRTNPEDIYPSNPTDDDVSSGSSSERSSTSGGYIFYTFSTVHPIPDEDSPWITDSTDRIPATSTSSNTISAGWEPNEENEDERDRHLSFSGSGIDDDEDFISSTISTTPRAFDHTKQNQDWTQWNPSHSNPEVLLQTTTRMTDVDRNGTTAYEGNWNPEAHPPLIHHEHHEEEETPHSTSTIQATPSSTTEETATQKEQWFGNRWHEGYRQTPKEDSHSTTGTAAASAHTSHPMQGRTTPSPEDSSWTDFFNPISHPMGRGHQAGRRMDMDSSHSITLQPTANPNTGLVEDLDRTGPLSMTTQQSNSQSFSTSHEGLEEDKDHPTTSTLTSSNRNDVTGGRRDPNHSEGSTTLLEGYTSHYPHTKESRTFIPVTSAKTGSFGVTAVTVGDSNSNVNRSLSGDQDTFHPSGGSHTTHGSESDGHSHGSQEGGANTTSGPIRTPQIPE

A Kd [1] of 0.88 nM, a Kd [2] of 48 nM and a Kd [3] of 0.3 nM were found for BIWA-4 IgG4 S228P (antibody) in this work. It also gave a koff [4] of 0.00031 s⁻¹, a kon [4] of 6500 M⁻¹ s⁻¹ and a koff [5] of 0.00017 s⁻¹. For the same substance, the kon [5] was 190000 M⁻¹ s⁻¹.

A Kd [6] of 0.18 nM was found for Herceptin (antibody) in this work.

From US20250340662A1
